According to paper PMC10499821:

B1: unnamed (parent)
chain 1: NNELSPVALRQMSCAAGTTQTACTDDNALAYYNTTKGGRFVLALLSDLQDLKWARFPKSDGTGTIYTELEPPCRFVTDTPKGPKVKYLYFIKGLNNLNRGMVLGSLAATVRLQ
chain 2: AEGIDIGEMPSYDLVL

Variants of: B1
Test: fluorescence polarisation saturation
Settings: with partner chain of the complex shown
For chain 1 G100N G104D, the Kd was 20 µM.
